Test results as given in patent US20250092148A1 (Kyowa Kirin, published 2025).

Tests used:
human CD131 D146A = target: T1, human CD131 D146A (human, UniProt P32927 17-897); assay: flow cytometry, Fab on HEK-293T cells expressing the mutant; labels of this column stand one row too low, mutant assigned after shifting them up
T1 construct: whole, on cells
T1 sequence (looked up): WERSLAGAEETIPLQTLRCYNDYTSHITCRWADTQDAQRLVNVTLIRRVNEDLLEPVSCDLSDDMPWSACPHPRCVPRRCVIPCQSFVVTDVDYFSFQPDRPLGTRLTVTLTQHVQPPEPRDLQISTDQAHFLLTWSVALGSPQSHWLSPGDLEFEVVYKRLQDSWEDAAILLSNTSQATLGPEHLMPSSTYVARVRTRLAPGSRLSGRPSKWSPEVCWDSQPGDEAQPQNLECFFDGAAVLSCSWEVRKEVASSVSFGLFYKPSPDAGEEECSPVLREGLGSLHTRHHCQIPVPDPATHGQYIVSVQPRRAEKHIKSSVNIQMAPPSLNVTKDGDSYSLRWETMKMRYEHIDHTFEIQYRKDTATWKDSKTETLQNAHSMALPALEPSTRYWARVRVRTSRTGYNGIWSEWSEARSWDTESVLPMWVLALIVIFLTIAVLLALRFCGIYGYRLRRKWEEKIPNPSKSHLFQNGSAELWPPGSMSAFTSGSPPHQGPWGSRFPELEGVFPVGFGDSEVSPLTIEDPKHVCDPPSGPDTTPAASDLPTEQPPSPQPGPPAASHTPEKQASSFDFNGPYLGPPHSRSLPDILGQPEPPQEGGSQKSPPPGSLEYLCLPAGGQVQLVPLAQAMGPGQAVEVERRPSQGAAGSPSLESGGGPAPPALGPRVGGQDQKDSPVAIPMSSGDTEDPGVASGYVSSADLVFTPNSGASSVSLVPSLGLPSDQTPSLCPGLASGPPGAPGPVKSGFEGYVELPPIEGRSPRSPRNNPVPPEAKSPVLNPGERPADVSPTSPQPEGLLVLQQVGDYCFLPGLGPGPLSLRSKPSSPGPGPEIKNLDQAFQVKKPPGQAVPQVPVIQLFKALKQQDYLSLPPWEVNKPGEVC

human CD131 G198A = target: T2, human CD131 G198A (human, UniProt P32927 17-897); assay: as above
T2 construct: whole, on cells
T2 sequence (looked up): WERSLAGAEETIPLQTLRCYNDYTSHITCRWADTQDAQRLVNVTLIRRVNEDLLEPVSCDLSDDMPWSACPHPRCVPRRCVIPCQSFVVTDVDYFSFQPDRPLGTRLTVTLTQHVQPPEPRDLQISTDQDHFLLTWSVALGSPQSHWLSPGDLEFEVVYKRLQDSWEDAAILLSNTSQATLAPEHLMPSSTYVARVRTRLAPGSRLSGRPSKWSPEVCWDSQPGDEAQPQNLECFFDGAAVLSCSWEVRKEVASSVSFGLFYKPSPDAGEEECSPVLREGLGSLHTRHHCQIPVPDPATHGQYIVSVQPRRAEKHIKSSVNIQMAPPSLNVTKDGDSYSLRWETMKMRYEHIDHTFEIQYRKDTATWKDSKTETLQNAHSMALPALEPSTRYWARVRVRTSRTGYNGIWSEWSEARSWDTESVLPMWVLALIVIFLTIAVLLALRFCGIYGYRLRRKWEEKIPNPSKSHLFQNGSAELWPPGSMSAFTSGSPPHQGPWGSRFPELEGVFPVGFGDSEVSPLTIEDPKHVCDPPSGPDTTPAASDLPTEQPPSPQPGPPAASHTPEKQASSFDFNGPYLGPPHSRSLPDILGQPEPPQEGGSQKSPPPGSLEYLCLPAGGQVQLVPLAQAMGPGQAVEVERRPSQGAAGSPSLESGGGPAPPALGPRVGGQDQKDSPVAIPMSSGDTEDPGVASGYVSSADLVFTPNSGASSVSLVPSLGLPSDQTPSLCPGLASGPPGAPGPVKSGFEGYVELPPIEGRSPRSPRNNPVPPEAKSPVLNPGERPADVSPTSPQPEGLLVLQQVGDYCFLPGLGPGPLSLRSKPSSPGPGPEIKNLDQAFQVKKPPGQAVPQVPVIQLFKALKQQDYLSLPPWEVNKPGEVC

human CD131 W163A = target: T3, human CD131 W163A (human, UniProt P32927 17-897); assay: flow cytometry, Fab on HEK-293T cells expressing the mutant; labels of this column stand one row too low, mutant assigned after shifting them up (text: W163 is an epitope residue)
T3 construct: whole, on cells
T3 sequence (looked up): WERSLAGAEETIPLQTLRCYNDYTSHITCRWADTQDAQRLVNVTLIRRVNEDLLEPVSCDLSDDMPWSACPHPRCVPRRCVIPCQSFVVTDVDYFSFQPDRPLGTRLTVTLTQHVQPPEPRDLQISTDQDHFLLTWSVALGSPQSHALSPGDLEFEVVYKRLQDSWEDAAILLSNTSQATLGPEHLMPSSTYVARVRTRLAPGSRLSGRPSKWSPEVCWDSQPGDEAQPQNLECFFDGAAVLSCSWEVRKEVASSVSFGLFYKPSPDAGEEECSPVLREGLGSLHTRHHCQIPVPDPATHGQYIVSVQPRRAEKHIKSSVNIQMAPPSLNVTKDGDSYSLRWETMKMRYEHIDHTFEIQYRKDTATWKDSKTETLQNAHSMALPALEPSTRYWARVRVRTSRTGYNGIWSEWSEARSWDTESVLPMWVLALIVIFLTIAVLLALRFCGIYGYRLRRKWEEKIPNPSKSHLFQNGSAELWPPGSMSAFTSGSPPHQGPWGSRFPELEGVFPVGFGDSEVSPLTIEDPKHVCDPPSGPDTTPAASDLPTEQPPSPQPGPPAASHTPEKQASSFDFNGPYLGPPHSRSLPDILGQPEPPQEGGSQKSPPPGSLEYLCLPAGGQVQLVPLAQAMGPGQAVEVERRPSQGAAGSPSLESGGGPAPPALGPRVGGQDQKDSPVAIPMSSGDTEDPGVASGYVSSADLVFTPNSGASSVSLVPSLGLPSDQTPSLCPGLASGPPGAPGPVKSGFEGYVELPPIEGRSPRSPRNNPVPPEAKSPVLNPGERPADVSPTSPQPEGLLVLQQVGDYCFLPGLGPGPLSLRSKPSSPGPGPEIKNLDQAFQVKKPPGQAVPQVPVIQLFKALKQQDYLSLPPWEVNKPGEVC

B1: anti-CD131 antibody 131-B2, Fab (Fab, V domains shown)
VH: QVQLVQSGAEVKEPGASVKISCKASGYTFTNDYMHWVRQAPGQGLEWMGIINPTGGGTSYAQKFRGRVTMTRDTSTSTVYMELSSLRSEDTAVFYCARERYYGSGTYFNIGLWYFDLWGRGTLVTVSS
VL: not shown
notes: Fab made from the antibody by an enzyme treatment
Human CD131 D146A
  Binding Reactivity (% WT): 88.4 % WT
Human CD131 G198A
  Binding Reactivity (% WT): 194 % WT
Human CD131 W163A
  Binding Reactivity (% WT): -9 % WT
